Columns and labels:
[1] = molecular target: Human amyloid beta (Aβ) 42 peptide (human) (UniProt P05067)
[2] = molecular target: Human amyloid beta (Aβ) 42 peptide (human) (UniProt P05067); remark: listed apart in the source

SAMP8 type Serpina3n, sequence (Q91WP6 21-418): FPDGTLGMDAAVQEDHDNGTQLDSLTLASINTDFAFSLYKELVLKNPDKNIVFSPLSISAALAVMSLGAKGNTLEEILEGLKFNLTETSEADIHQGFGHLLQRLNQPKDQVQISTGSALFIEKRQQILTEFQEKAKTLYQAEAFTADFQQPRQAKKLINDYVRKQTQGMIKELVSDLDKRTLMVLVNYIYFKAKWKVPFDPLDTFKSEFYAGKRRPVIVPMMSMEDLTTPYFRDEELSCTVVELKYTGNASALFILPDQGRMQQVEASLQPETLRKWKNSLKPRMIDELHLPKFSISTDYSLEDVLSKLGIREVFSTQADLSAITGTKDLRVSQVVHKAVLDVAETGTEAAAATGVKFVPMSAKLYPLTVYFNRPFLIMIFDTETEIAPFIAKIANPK

SAMP8 type Serpina3n (from UniProt Q91WP6 21-418) (natural protein)
prevalence of oligomer rich observation fields of Aβ 42 under TEM, 0 to 72 hr of preincubation (delayed fibrillization) [1]: 72 h
thioflavin T fluorescence assay of Aβ 42 fibrillization (time for which oligomeric or small protofibrillar forms were kept before the plateau) [2]: 13 h

From paper PMC7932536
